Legend:
Test in all cases: cell-based or functional assay
[1] = biological target: HIV-1 Env of pseudovirus isolate MGRM-C-009 (clade C) (HIV-1)
[2] = biological target: HIV-1 Env of isolate MGRM-D-018 (pseudovirus) (HIV-1)
[3] = biological target: HIV-1 Env of isolate MGRM-F1-020 (HIV-1)
[4] = biological target: HIV-1 CMU02 envelope protein (Env) on pseudovirus (HIV-1)
[5] = biological target: HIV-1 Env of isolate MGRM-C-005 (HIV-1)
[6] = biological target: HIV-1 Env of isolate 92UG024 (pseudovirus) (HIV-1)
[7] = biological target: HIV-1 93IN905 Env (HIV-1)
[8] = biological target: HIV-1 Env of isolate MGRM-F1-004 (HIV-1)
[9] = biological target: HIV-1 Env of isolate MGRM-D-020 (pseudovirus) (HIV-1)
[10] = biological target: HIV-1 Env of isolate MGRM-D-016 (pseudovirus) (HIV-1)
[11] = biological target: HIV-1 Env of isolate MGRM-AE-004 (subtype AE) (HIV-1)
[12] = biological target: HIV-1 JR-CSF Env N301A (HIV-1 (isolate JR-CSF, clade B)) (UniProt P20871)
[13] = biological target: HIV-1 Env of isolate MGRM-F1-015 (HIV-1)
[14] = biological target: HIV-1 Env of isolate MGRM-AG-002 (subtype AG) (HIV-1)

Substance	IC50, pseudovirus neutralization [1]	IC50 (µg/mL), pseudovirus neutralization [2]	IC50 (µg/mL), pseudovirus neutralization [3]	IC50 (ug/mL), pseudovirus neutralization [4]	IC50 (µg/mL), pseudovirus neutralization [5]	IC50 (µg/mL), pseudovirus neutralization [6]	IC50, pseudovirus neutralization [7]	IC50 (µg/mL), pseudovirus neutralization [8]	IC50 (µg/mL), pseudovirus neutralization [9]	IC50 (µg/mL), pseudovirus neutralization [10]	IC50, pseudovirus neutralization [11]	Fold IC50 increase relative to wild-type [12]	IC50 (µg/mL), pseudovirus neutralization [13]	IC50, pseudovirus neutralization [14]
5147_N06 (PGT-130) (antibody)	> 50 µg/mL	0.049 µg/mL	9.73 µg/mL	> 10 µg/mL	0.935 µg/mL	> 50 µg/mL	0.0182 µg/mL	0.023 µg/mL	24.7 µg/mL	> 50 µg/mL	2.43 µg/mL	> 1000 fold	> 50 µg/mL	> 50 µg/mL
5114_A19 (PGT-128) (antibody)	> 50 µg/mL	0.008 µg/mL	0.355 µg/mL	–	0.03 µg/mL	> 50 µg/mL	–	0.027 µg/mL	0.011 µg/mL	> 50 µg/mL	> 50 µg/mL	10.7 fold	> 50 µg/mL	4.99 µg/mL
5136_H01 (PGT-131) (antibody)	> 50 µg/mL	0.148 µg/mL	> 50 µg/mL	–	1.36 µg/mL	> 50 µg/mL	–	0.114 µg/mL	> 50 µg/mL	> 50 µg/mL	> 50 µg/mL	> 170 fold	> 50 µg/mL	> 50 µg/mL

— US20240132578A1
